Data as given in the nanobody polyreactivity screen of Harvey et al. (2022).

Test: yeast display, Sf9 membrane polyspecificity reagent, FACS + sequencing; frameworks hold sequencing errors
Outline: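 A synthetic nanobody library was expressed on Saccharomyces cerevisiae BJ5465 by galactose induction for 36–48 hours. The library was stained for 1 hour at 4 °C with 10% biotinylated, detergent-solubilized Sf9 membrane reagent and enriched with streptavidin microbeads before FACS. Low and high (top ~1%) gates were set on anti-HA fluorescence for expression and streptavidin fluorescence for reagent binding, and each polyreactivity label reflects the gate of origin.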
In the case of “QVQLVESGGGLVQAGGSLRLSCAASGLIFRYYDMGWYRQAPGKERELVAAISSSGTRTYYADSVKGRFTISRENPKNTVYLQMNSLKPEDTSVYYCATENQNPTGGYWGQGTQVTVSS”, the “polyreactivity (PSR sort gate)” value is reported as “high polyreactivity”.
In the case of “QVQLVESGGGLVQAGGSLRLSCAASGLIFSPYAMGWYRQAPGKVREFVAAITSRGGTYYADSVKGRFTISRDNAKNTVYLQMNSLKPEDTAVYYCAARNNRYPLYNYWGQGTQVTVSS”, the “polyreactivity (PSR sort gate)” value is reported as “low polyreactivity”.
For “QVQLVESGGGLVQAGGSLRLSCAASGLIFSRYTMGWNRQAPGKERELVAAISRSGTNTYYADSVKGRFTISRDNAKNTVYLQMNSLKPEDTAVYYCAARGYYRDYDSWGQGTQVTVSS”, the “polyreactivity (PSR sort gate)” value was “high polyreactivity”.
With “QVQLVESGGGLVQAGGSLRLSCAASGLIFSRYTMGWYRQAPGKERELVAAISLGGGRTYYADSVKGRFTISRDNAKNTVYLQMNSLKPEDTAVYYCAATRYYSSDYWGQGTQVTVSS” the “polyreactivity (PSR sort gate)” value was “low polyreactivity”.
In the case of “QVQLVESGGGLVQAGGSLRLSCAASGLIFSSYAMGWYRQAPGKERELVAAISGSGGSTYYADSEKGRFTISRDNAKNTVYLQMNSLKPEDTAVYYCAAELDDYWVVSEDSSGQGTQVTVSS”, the “polyreactivity (PSR sort gate)” value is reported as “low polyreactivity”.
In the case of “QVQLVESGGGLVQAGGSLRLSCAASGLIFSSYAMGWYRQAPGKERELVAAITGSGGRTYYADSVKGRFTISRDNAKNTVYLQMNSLKPEDTAVYYCAAKYPDPRYYTGYDYWGQGTQVTVSS”, the “polyreactivity (PSR sort gate)” value is reported as “high polyreactivity”.
With “QVQLVESGGGLVQAGGSLRLSCAASGLIFSTNDMGWYRQAPGKERELVAAITSDVSTYYADSVKGRFTISRDNAKNTVYLQMNSLKPEDTAVYYCAKDDSGYINWRYDYWGQGTQVTVSS” the “polyreactivity (PSR sort gate)” value was “low polyreactivity”.
For “QVQLVESGGGLVQAGGSLRLSCAASGLIFSTYAMGWYRQAPGKERELVAAINSGGGNTYYADSVKGRFTISRDNAKNTVYLQMNSLKPEDTAVYYCNAQWRRHPGIWHYGYWGQGTQVTVSS”, the “polyreactivity (PSR sort gate)” value was “low polyreactivity”.
With “QVQLVESGGGLVQAGGSLRLSCAASGLIFSWNAMGWYRQAPGKERELVASISYSGGRTYYADSVKGRFTISRDNAKNTVYLQMNSLKPEDTAVYYCAADTNATTDPEMDYWGQGTQVTVSS” the “polyreactivity (PSR sort gate)” value was “low polyreactivity”.
For “QVQLVESGGGLVQAGGSLRLSCAASGLIFSWYDMGWYRQAPGKERELVDAITTDGDDTYYADSVKGRFTISRDNAKNTVYLQMKSLKPEDTAVYYCDAVSEVAIRYPDRDYDSWGQGTQVTVSS”, the “polyreactivity (PSR sort gate)” value was “low polyreactivity”.
With “QVQLVESGGGLVQAGGSLRLSCAASGLIFSYNAMGWYRQAPGKERELVATISYSGGTTYYADSVKGRFTISRDNAKNTVYLQMNSLKPEDTAVYYCAARTLYSPGRPWKWYNYGRYGYWGQGTQVTVSS” the “polyreactivity (PSR sort gate)” value was “high polyreactivity”.
With “QVQLVESGGGLVQAGGSLRLSCAASGLIFSYYAMGWYRQAPGKERELVAAITGSGGSTYYADSVKGRFTISRDNAKNTVYLQMNSLKPEDTAVYYCAAGRYAYTLSRKYDYWGQGTQVTVSS” the “polyreactivity (PSR sort gate)” value was “high polyreactivity”.
In the case of “QVQLVESGGGLVQAGGSLRLSCAASGLIFSYYAMGWYRQAPGKETELVAGITRSGASTYADSVKGRFTISRDNAKNTVYLQMNSLKPEDTAVYYCAADWHYLGWFWQYSKYDYWGQGTQVTVSS”, the “polyreactivity (PSR sort gate)” value is reported as “high polyreactivity”.
For “QVQLVESGGGLVQAGGSLRLSCAASGLIFSYYTMGWYRQAPGKERELVAAISSSAGSTYYADSVKGRCTISRDNAKNTVYCQMNSLKPEDTAVYYCNVRTLVQHHSSYSSRYESWGQGTHVTVSS”, the “polyreactivity (PSR sort gate)” value was “high polyreactivity”.
With “QVQLVESGGGLVQAGGSLRLSCAASGLIFTDYVMGWYRQAPGKEREFVAAITGSAGRTYYADSVKGRFTISRDNAKNTVYLQMNSLKPEDTAVYYCNADYWWWHEYDYWGQGTQVTVSS” the “polyreactivity (PSR sort gate)” value was “high polyreactivity”.
With “QVQLVESGGGLVQAGGSLRLSCAASGLIFTSNTMGWYRQAPGKERELVAAISRRGGNTYYADSVKGRFTISRDNAKNTVYLQMNSLKPEDTAVYYCAAVAYALGFASKEDYWGQGTQVTVSS” the “polyreactivity (PSR sort gate)” value was “high polyreactivity”.
For “QVQLVESGGGLVQAGGSLRLSCAASGLIFTSYAMGWYRHAPGKERELVAAISTSGGRTYYADSVKGRFTISRDNAKNTVYVQMNSLKAEDTAVYYCYANWRYPYDYWGQGTQVTVSS”, the “polyreactivity (PSR sort gate)” value was “high polyreactivity”.
For “QVQLVESGGGLVQAGGSLRLSCAASGLIFTSYAMGWYRQAPGKERELVAAISTGGGRTYYADSVKGRFTISRDNAKNTVYLQMNSLKPEDTAVYYCAADSVTYGYDYWGQGTQVTVSS”, the “polyreactivity (PSR sort gate)” value was “high polyreactivity”.
With “QVQLVESGGGLVQAGGSLRLSCAASGLIFTSYAMGWYRQAPGKERELVAAISYSGGTTFYADSVKGRFTISRDNAKNTVYLQMNSLKPEDTAVYYCAADSLSTTHDTLGYDRDDYWGQGTQVTVSS” the “polyreactivity (PSR sort gate)” value was “low polyreactivity”.
With “QVQLVESGGGLVQAGGSLRLSCAASGLIFTTYAMGWYRQAPGKERELVAAISSSGDSTYYADSVKGRFTISRDNAKNTVYLQMNSLKPEDTAVYYCAARYYYRGYEFGYWGQGTQVTVSS” the “polyreactivity (PSR sort gate)” value was “high polyreactivity”.
In the case of “QVQLVESGGGLVQAGGSLRLSCAASGLIFTYYAMGWYRQAPGKERELVAAITSGGTTNYADSVKGRFTISRDNAKNTVYLQMNSLKPEDTAVYYCAADYDTGSERYEYWGQGTQVTVSS”, the “polyreactivity (PSR sort gate)” value is reported as “low polyreactivity”.
For “QVQLVESGGGLVQAGGSLRLSCAASGLIFVDNAMGWYRQAPGKERELVAAIDSGGRTYYADSVKGRFTISRDNAKNTVYLQMNSLKPEDTAVYYCAAPWRLFCLYDYWGQGTQVSVSS”, the “polyreactivity (PSR sort gate)” value was “low polyreactivity”.
In the case of “QVQLVESGGGLVQAGGSLRLSCAASGLIFVNDMGLYRQAPGKEREFVAAITYSTGSTYYADSVKGRFTISRDNAKNTVYLQMNSLKPEDTAVYYCAKDRSGHGTERDYWGQGTQVTVSS”, the “polyreactivity (PSR sort gate)” value is reported as “low polyreactivity”.
In the case of “QVQLVESGGGLVQAGGSLRLSCAASGLIFVPYAMGWYRQAPGKERELVAAINSGATTYYADSVKGRFTISRDNAKNTVYLQMNSLKPEDTAVYYCAARSRFTESSRYYYWGQGTQVTVSS”, the “polyreactivity (PSR sort gate)” value is reported as “high polyreactivity”.
In the case of “QVQLVESGGGLVQAGGSLRLSCAASGLIFVRYAMGWYRQAPGKERELVAAITTGGRTYYADSVKGRFTISRDNAKNTVYLQMNSLKPEDTAVYYCAAQSFYGIYYGQQDYDYWGQGTQVTVSS”, the “polyreactivity (PSR sort gate)” value is reported as “high polyreactivity”.
In the case of “QVQLVESGGGLVQAGGSLRLSCAASGLIFVVYAMGWYRPAPGKERELVADISSGGRTSYADSVKGRFTISRDNAKNTVYLQMNSLKPEDTAVYYCNAYPVFNQYYGWRYDYWGQGTQVTVSS”, the “polyreactivity (PSR sort gate)” value is reported as “low polyreactivity”.
For “QVQLVESGGGLVQAGGSLRLSCAASGLIFVWYAMGWYRQAPGKERELVAAISWSGGSTYYADSVKGRFTISRDNAKTTVYLQMNSLKPEDTAVYYCATDPFGYSYLLVDYNYWGQGTQVTVSS”, the “polyreactivity (PSR sort gate)” value was “low polyreactivity”.
In the case of “QVQLVESGGGLVQAGGSLRLSCAASGLIFVYYAMGWYRQAPGKERELVAAITSRGGSTYYADSVKGRFTISRDNAKNTVYLQMNSLKPEDTAVYYCAAVYRHGAFPRYGYWGQGTQVTVSS”, the “polyreactivity (PSR sort gate)” value is reported as “high polyreactivity”.
For “QVQLVESGGGLVQAGGSLRLSCAASGLIFVYYDMGWYRQAPGKERELVAAISSSGSTYYADSVKGRFTISRDNAKNTVYLQMNSLKPEDTAVYYCAAEYLYWPFGSNYWGQGTQVTVSS”, the “polyreactivity (PSR sort gate)” value was “high polyreactivity”.
For “QVQLVESGGGLVQAGGSLRLSCAASGLIFVYYTMGWYRQAPGKERELVARISQSGGTTYYADSVKRRFTISRDNAKNTVYLQLNSLKREDTAVYYCAAVYQLYYSGGRYYYWGQGSQVTVSS”, the “polyreactivity (PSR sort gate)” value was “high polyreactivity”.
In the case of “QVQLVESGGGLVQAGGSLRLSCAASGLIFWGYAMGWYRQAPGKERELVAAISSSGGSTYYADSVKGRFTISRDNAKNTVYLQMNSLKPEDTAVYYCNADYTYYPGYDYWGQGTQVTVSS”, the “polyreactivity (PSR sort gate)” value is reported as “low polyreactivity”.
In the case of “QVQLVESGGGLVQAGGSLRLSCAASGLIFWYYAMGWYRQAPGKERELVAVITRSDASTYYADSVKGRFTISRDNAKNTVYVQMNSLKPEDTAVYYCAAYIRYGYSPWGYDYWGQGTQVSVSS”, the “polyreactivity (PSR sort gate)” value is reported as “low polyreactivity”.
In the case of “QVQLVESGGGLVQAGGSLRLSCAASGLIFYDNMGWYIQAPGKEREMVAAISSSGGSTSYADSVKGRFTISRDNAKNTVYLQMNSLKPEDTAVYYCAADSYPAYLGFVGFDYWGQGTQVTVSS”, the “polyreactivity (PSR sort gate)” value is reported as “low polyreactivity”.
For “QVQLVESGGGLVQAGGSLRLSCAASGLIFYDNMGWYRQAPGKERELVAAISSSGGSTSYADSVKGRFTISRDNAKKTVYLQMNSLKPEDTAVYYCAAKWSHVRDGPKYDYWGQGTQVTVSS”, the “polyreactivity (PSR sort gate)” value was “low polyreactivity”.
In the case of “QVQLVESGGGLVQAGGSLRLSCAASGLIFYDNMGWYRQAPGKERELVAAISSSGGSTSYADSVKGRFTISRDNAKNTVYLQMNSLKPEDTAVYFCAADSYPAYLGFVGFDYWGQGTQVTVSS”, the “polyreactivity (PSR sort gate)” value is reported as “low polyreactivity”.
For “QVQLVESGGGLVQAGGSLRLSCAASGLIFYDNMGWYRQAPGNERELVAAITVSGGATYYADSVKGRFTISRDNAKNTVYLQMNSLKPEDTAVYYCARELLSPTYQRWYYYWGQGTQVTVSS”, the “polyreactivity (PSR sort gate)” value was “low polyreactivity”.
In the case of “QVQLVESGGGLVQAGGSLRLSCAASGLIFYENAMGWYRQAPGKERELVAAINYDGDSTYYADSVKGRFTISRDNAKNTVYLQMNSLKPEDTAVYYCAADGGWVLFWMDYWGQGTQVTVSS”, the “polyreactivity (PSR sort gate)” value is reported as “low polyreactivity”.
With “QVQLVESGGGLVQAGGSLRLSCAASGLIFYGNAMGWYREAPGKERELVAAISRRGGRTYYADSVKGRYTISRDNAKNTVYLQMNSLKPEDTAVYYCAAGVPKNGQAGYDYWGQGTQVTVSS” the “polyreactivity (PSR sort gate)” value was “high polyreactivity”.
In the case of “QVQLVESGGGLVQAGGSLRLSCAASGLIFYGYVMGWYRQAPGKERELVAGISRNSGSTYYADSVKGRFTISRDNAKTTVYLQMNSLKPEDTAVYYCAKAYYRRYAAPGYDYWGQGTQVTVSS”, the “polyreactivity (PSR sort gate)” value is reported as “low polyreactivity”.
With “QVQLVESGGGLVQAGGSLRLSCAASGLIFYLYAMGWYRQAPGKERELVAAITSGGGSTYYADSVKGRFTISRDNAKNTVYLQMNSLKPEDTAVYYCAARLVLYITVVYEDDYWGQGTQVTVSS” the “polyreactivity (PSR sort gate)” value was “low polyreactivity”.
